In PMC9704708 (Proceedings of the National Academy of Sciences of the …, 2022):

Experiments:
[1] = biological target: cytochrome c endogenous in human cells (HeLa, IMR-90) (Homo sapiens, UniProt P99999); assay: immunostaining of cells or tissue
[2] = biological target: cytochrome c endogenous in Vero cells (Chlorocebus (African green monkey), …, UniProt G4XXN2); assay: immunostaining of cells or tissue
[3] = biological target: cytochrome c endogenous in bovine aortic endothelial cells (Bos taurus, UniProt P62894); assay: immunostaining of cells or tissue
cytochrome c endogenous in bovine aortic endothelial cells, sequence (P62894 whole entry): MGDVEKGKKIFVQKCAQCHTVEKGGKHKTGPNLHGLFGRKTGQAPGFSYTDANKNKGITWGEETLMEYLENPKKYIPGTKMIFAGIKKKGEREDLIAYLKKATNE

[4] = biological target: T1, cytochrome c endogenous in mouse melanoma B16-F1 cells (Mus musculus, UniProt P62897); assay: immunostaining of cells or tissue
T1 sequence (P62897 whole entry): as the sequence (P62894 whole entry) above, with P45A, E63D, E93A counted along it

[5] = biological target: 1–65 CNBr-cleaved peptide of cytochrome c (Equus caballus (assumed), UniProt P00004); assay: ELISA
1–65 CNBr-cleaved peptide of cytochrome c, sequence (P00004 2-66): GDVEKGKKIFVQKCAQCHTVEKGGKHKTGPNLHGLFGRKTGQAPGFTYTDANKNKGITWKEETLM

[6] = biological target: T1, cytochrome c endogenous in mouse …; assay: flow cytometry on cells

Measured: binding result

cytochrome c endogenous in human cells (HeLa, IMR-90), sequence (P99999 whole entry): as the sequence (P62894 whole entry) above, with V12I, Q13M, A16S, F47Y, D51A, T59I, E63D, A84V, G90E, E93A counted along it

B1: monoclonal antibody 1D3 (original, hybridoma-derived) (antibody, V domains shown)
VH: QVQLQQPGAELVKPGASVKMSCKASGYTFTSNNMHWVKQTPGQGLEWIGGLYPGNGDTSYNQKFKGKATLTADKSSSTAYMQLSSLTSGDSAVYYCARGIRDFFAMDYWGQGTSVTVSS
VL: DIQMTQSPASQSASLGESVTITCLASQTIGTWLAWYQQKPGKSPQLLIYAATSLADGVPSRFSGSGSGTKFSFKISSLQAEDFVSYYCQQLYSTPLTFGAGTKLELK
binds: [1] | [2] | [3] | [4]

B2: recombinant monoclonal antibody R1D3 (antibody, V domains shown)
VH: QVQLQQPGAELVKPGASVKMSCKASGYTFTSNNMHWVKQTPGQGLEWIGGLYPGNGDTSYNQKFKGKATLTADKSSSTAYMQLSSLTSGDSAVYYCARGIRDFFAMDYWGQGTSVTVSS
VL: DIQMTQSPASQSASLGESVTITCLASQTIGTWLAWYQQKPGKSPQLLIYAATSLADGVPSRFSGSGSGTKFSFKISSLQAEDFVSYYCQQLYSTPLTFGAGTKLELK
binds: [5] | [2] | [6]
